# Measured values published in article PMC6234289.
# Target: ribosome (40S ribosomal subunit) of RACK1-downregulated HeLa cells
# Assay: in vitro ribosome interaction assay (iRIA)
# Settings: parent: est. 1.1; read off a plot
substance,measurement,value
"MBP-RACK1, wild type (from UniProt P63244) R36D; K38E",response,0.47 Abs450
